Data taken from doi:10.1101/142505, “14-3-3 Negatively Regulates Actin Filament Formation in the Deep Branching Eukaryote Giardia lamblia” (bioRxiv, 2017).

Biological target: the molecule itself
Assay: native gel or EMSA; TS-actin and associated proteins eluted from StrepTactin resin with 2 mM biotin, run at once on 4-16% NativePAGE, western blot; also samples crosslinked with DSP before lysis

B1: Gl14-3-3-HA (endogenously C-terminally 3XHA tagged Gl14-3-3) (natural protein, Giardia lamblia, UniProt E2RU97 1-248, looked up)
chain: MAEAFTREDYVFMAQLNENAERYDEMVETMRKISGMEGELSDKERNLLSVAYKNVIGPRRAAWRIVSSIEAKEKGRQKPNAKRIEQIRVYRQKIEKELSDICNDILKLLQEQFVPRSTNADAKVFYYKMQGDYYRYLAEYSSGEDKEKIAGSALNAYNSAFEISQQLPPTHPIRLGLALNFSVFYYEILASPDRACELARKAFDAAITDLDKLTEESYKDSTLIMQLLRDNLNLWVTDSAGDDNAEEK
notes: the single 14-3-3 homolog of Giardia (Gl14-3-3), GL50803_6430; source: Giardia trophozoites, endogenously tagged, in lysate; not shown: 3XHA, C-terminal, kept
In the case of B1, the “stoichiometry N” value is reported as 2.
